Experimental findings from patent US6936431 (dated 2005) are described below.

Test [1] has as its target T1, rat brain farnesyl:protein transferase (rat, UniProt Q04631 2-377; Q02293 1-437). In words: farnesyltransferase activity inhibition; FIG. 10B.
Test [2] addresses T1, rat brain farnesyl:protein transferase. In words: farnesyltransferase activity inhibition; FIG. 10C.
Test [3] shares this target.
For test [4] the target is unchanged. In words: farnesyltransferase activity inhibition; FIG. 10A.
Test [5] has the same target. Put plainly: farnesyltransferase activity inhibition; FIG. 12A.
Test [6] shares this target. In words: farnesyltransferase activity inhibition; FIG. 12B.
The target is the same in test [7]. In words: farnesyltransferase activity inhibition; FIG. 11.

Several values for one entry are separate records, joined by “and”; a condition that tells them apart may be missing. Equal entries are not always repeated. Where two headings read alike, the source gives them in different places.

As usually defined, the Ki is a dissociation constant, usually derived from enzyme kinetics or from competition with a known ligand. Regarding CVIK [CVIM with lysine at the X position (CVIK)], the Ki in test [1] is > 30000 nM. CVLM showed a Ki in test [2] of 200 nM. With CVIM [CVIM (COOH-terminal tetrapeptide of p21^K-rasB)], in test [3], the Ki was 350 nM and 200 nM. Take CVIL [CVIL (COOH-terminal tetrapeptide of rap2b)]: the inhibitory constant (Ki) in test [2] stood at 10500 nM. As for CVKM [CVIM with lysine at the A2 position (CVKM)], in test [1], the inhibition constant (Ki) is > 30000 nM.

CVAM: the affinity in test [4], expressed as Ki, was 6000 nM. CVIA [CVIA (COOH-terminal tetrapeptide of a-Mating factor)]: in test [4], the Ki turned out to be 4000 nM. Turning to CVFM, the Ki in test [5] came to 10 nM; in test [6], 35 nM.

Molecule CLIM displayed a Ki in test [2] of 80 nM. In turn, CFIM came in with a Ki in test [7] of 500 nM.
